Measured values from PMC8620955.
“And” between values parts separate entries of the source, which are not always exact repeats. Identical values can stand only once.

What was measured:
HIS-tagged FcγR1A = HIS-tagged FcγR1A (UniProt P12314); assay: SPR; Biacore T200; His-tagged FcγR1A captured by an anti-HIS antibody on a CM5 chip; antibody as analyte, single-cycle kinetics, 2.5 to 40 nM, 30 min dissociation; HBS-T pH 7.4; bivalent binding model
HIS-tagged FcγR2B = HIS-tagged FcγR2B (UniProt P31994); assay: SPR; Biacore T200; His-tagged FcγR2B or FcγR3A captured by an anti-HIS antibody on a CM5 chip; antibody as analyte, single-cycle titration, 25 to 400 nM, 30 min dissociation; HBS-T pH 7.4; KD from fits to the responses at equilibrium
HIS-tagged FcγR3A = HIS-tagged FcγR3A (UniProt P08637); assay: as above
[1] = target: HIS-tagged HER2 (Homo sapiens (assumed; trastuzumab target, species not stated)) (UniProt P04626); assay: SPR; Biacore T200; His-tagged HER2 (4 nM) captured by an anti-HIS antibody on a CM5 chip; antibody as analyte, single-cycle kinetics, 2-fold dilutions 0.5–8 nM, 20 µL/min for 2 min, 60 min dissociation; HBS-T (10 mM HEPES, 150 mM NaCl, 0.05% Tween 20, pH 7.4); bivalent binding model; duplicate

Substance | Kd (HIS-tagged FcγR1A) | koff (HIS-tagged FcγR1A) | kon (HIS-tagged FcγR1A) | Kd (HIS-tagged FcγR2B) | Kd (HIS-tagged FcγR3A) | Kd [1]
Trastuzumab A121N (antibody) | 4.8 nM | 0.00083 s⁻¹ and 0.00098 s⁻¹ | 170000 M⁻¹ s⁻¹ and 200000 M⁻¹ s⁻¹ | 3140 nM and 3740 nM | 295 nM and 268 nM | –
Trastuzumab L115N (antibody) | 6.4 nM and 3.7 nM | – | – | 269 nM and 338 nM | 301 nM and 394 nM | 1.13 nM and 1.16 nM
Trastuzumab Q160N (antibody) | 6.5 nM and 6.7 nM | 0.00076 s⁻¹ | 120000 M⁻¹ s⁻¹ and 110000 M⁻¹ s⁻¹ | 143 nM | 596 nM and 535 nM | –
Trastuzumab Q178N (antibody) | 2.6 nM and 2.5 nM | – | 370000 M⁻¹ s⁻¹ | 485 nM | 239 nM and 217 nM | –
Trastuzumab T198N (antibody) | 3.8 nM | 0.00088 s⁻¹ and 0.0009 s⁻¹ | 240000 M⁻¹ s⁻¹ | 666 nM | – | –

Second part, the substance after the results:

Kd (HIS-tagged FcγR1A) | koff (HIS-tagged FcγR1A) | kon (HIS-tagged FcγR1A) | Kd (HIS-tagged FcγR2B) | Kd (HIS-tagged FcγR3A) | Kd [1] | Substance
9.9 nM | 0.001 s⁻¹ | 110000 M⁻¹ s⁻¹ | 686 nM | 433 nM | – | HEK Trastuzumab (antibody)
4.7 nM | – | – | 666 nM | 267 nM | – | Herceptin (antibody)
5.6 nM | 0.0014 s⁻¹ and 0.0015 s⁻¹ | 250000 M⁻¹ s⁻¹ and 260000 M⁻¹ s⁻¹ | 1280 nM and 992 nM | 535 nM and 551 nM | – | Trastuzumab L177N (antibody)
8.2 nM and 8.1 nM | 0.0015 s⁻¹ | – | – | – | – | Trastuzumab L182N (antibody)
